Test results from patent publication KR20220054080A (dated 2022).
“And” between values parts separate entries of the source, which are not always exact repeats. Identical values can stand only once.

Experiments:
SARS-CoV-2 RBD-mFc [1] = target: T1, SARS-CoV-2 RBD-mFc (SARS-CoV-2, UniProt P0DTC2 319-541); experiment: flow cytometry competition: RBD-mFc on HEK293E/ACE2 cells
T1 construct: range 319-541

SARS-CoV-2 스파이크 S1-mFc = target: T2, SARS-CoV-2 스파이크 S1-mFc (SARS-CoV-2, UniProt P0DTC2 16-685); experiment: competition ELISA: S1-mFc on coated ACE2-His
T2 construct: range 16-685

[2] = target: SARS-CoV RBD-His (#40150-V08B2, Sino Biological) (SARS-CoV, UniProt P59594 306-527); experiment: ELISA, coated His-tagged antigen
[3] = target: SARS-CoV 스파이크 [change] (#40150-V08B1, Sino Biological) (SARS-CoV, UniProt P59594 14-667); experiment: ELISA, coated S1-His
SARS-CoV-2 RBD-mFc [4] = target: T1, SARS-CoV-2 RBD-mFc; experiment: competition ELISA: RBD-mFc on coated ACE2-His
SARS-CoV-2 RBD-mFc [5] = target: T1, SARS-CoV-2 RBD-mFc; experiment: Octet QKe BLI, 1:1 global fit
SARS-CoV-2 RBD-hFc = SARS-CoV-2 RBD-hFc (SARS-CoV-2, UniProt P0DTC2 319-541); experiment: cell-based or functional assay
[6] = target: T3, SARS-CoV-2 spike protein on live SARS-CoV-2 virus (SARS-CoV-2, UniProt P0DTC2 14-1273); experiment: cell-based or functional assay
[7] = target: T3, SARS-CoV-2 spike protein on live …; experiment: cell-based or functional assay; remark: listed apart in the source

| Binder | IC50 (SARS-CoV-2 RBD-mFc [1]) | IC50 (SARS-CoV-2 스파이크 S1-mFc) | binding result [2] | binding result [3] | IC50 (SARS-CoV-2 RBD-mFc [4]) | Kd (SARS-CoV-2 RBD-mFc [5]) | koff (SARS-CoV-2 RBD-mFc [5]) | kon (SARS-CoV-2 RBD-mFc [5]) | IC50, 세포내 유입(internalization) 억제, HEK293E/ACE2-GFP (SARS-CoV-2 RBD-hFc) | IC50, live SARS-CoV-2 미세중화분석, Vero 세포 [6] | IC50, live SARS-CoV-2 미세중화분석, Vero 세포, 72시간 [7] |
| --- | --- | --- | --- | --- | --- | --- | --- | --- | --- | --- | --- |
| SA4050 (antibody, V domains shown) VH: QVQLVESGAEVKKPGASVKVSCKASGYTFTGYFIHWVRQAPGQGLEWMGWINPNSGGTNYAQKFQGRVTMTRDTSISTAYMELSRLRSDDTAVYYCARVPHLSGYYYEGVLGYFDYWGQGTLVTVSS VL: QSALTQPASVSGSPGQSITISCTGTSIDIGSYNFVSWYQRHPGKAPRLLIYDVSDRPSGVSNRFSGSKSANTASLTISGLQAEDEADYYCSSYTSSSLWVFGGGTKLTVL | 2.93 nM | 1.45 nM | no binding | no binding (tested: 50 nM) | 3.14 nM | 0.0929 nM | 4.67e-05 s⁻¹ | 503000 M⁻¹ s⁻¹ | 36.9 nM | 0.71 nM |  |
| SA3902 (antibody, V domains shown) VH: QVQLVQSGAEVRQPGASVKVSCKTSGYAFSYYHIHWVRQAPGQGLEWMGLINPGSGGTNYAQKFQGRVTLTRDTSTSTVYMDLTGLRSEDTAVYYCAGSEQPHYYANGAYRVWGQGTLVTVSS VL: DIQMTQSPSTLSASVGDRVTITCRASQSISSYLNWYQQKPGKAPKLLIYEVSTLESGVPSRFSGSRSGTEFTLTISSLQPDDFATYYCQQYDTFGGGTKVEIK | 1.75 nM | 3.85 nM | no binding | no binding (tested: 50 nM) | 12.4 nM | 0.328 nM | 8.12e-05 s⁻¹ | 247000 M⁻¹ s⁻¹ | 14.9 nM | 37.3 nM |  |
| SA4040 (antibody, V domains shown) VH: EVQLVQSGAEVKKPGASVKVSCKASGYTFTGYYMHWARQAPGQGLEWMGWINPNSGGTNYAQKFQGRVTMTRDTSITTAYMELSRLTSDDTAVYYCARDQAFSMVRGVTDYWGQGTLVTVSS VL: QSALTQPPSASGSPGQSVIISCTGSSSDVGGYNYVAWYQQYPGAAPKLIISEVTKRPSGVPDRFSGSKSGNTASLTISGLQAEDEANYYCSSYAGDNTWIFGGGTKLTVL | 1.59 nM | 3.1 nM | no binding | no binding (tested: 50 nM) | 25.3 nM | 0.384 nM | 0.000181 s⁻¹ | 471000 M⁻¹ s⁻¹ | 30.8 nM | 8.14 nM |  |
| SA3830 (antibody, V domains shown) VH: QVQLVESGGGLIQPGRSLSLSCAASGFNFDEYSMHWVRQRPGKGLEWVSGIKYNSNTILYADSVKGRFTVSRDNSKNSLYLQMNSLRAEDTAVYYCARDAMRGGDFDHWGQGTLITVSS VL: DIQMTQSPSYLSASAGDRVTITCRASQSISDWLAWYQHKPGKAPKLLIYKASRLENGVPSRFRGSGSATDFTLTISSLQAEDVAVYYCQQYYSTTWTFGQGTKVDIK | 2.57 nM | 1.86 nM | no binding | no binding (tested: 50 nM) | 10.2 nM | 0.782 nM | 0.000702 s⁻¹ | 897000 M⁻¹ s⁻¹ | 13.5 nM | 231 nM |  |
| SA3856 (antibody, V domains shown) VH: QMQLVESGGGLIQPGGSLRLSCAASGFTVTSAYMSWVRQAPGKGLEWVSIIYGGGSTYYADSVKGRFTISRDNSKNTLYLQMNSLRAEDTAVYYCTGPYPGRYDYWGRGTLVTVSS VL: DIQMTQSPSSLSASVGDRVIITCRASQDIRTSLAWFQQRLGEAPRSLIYDASSLQNGVPSKFRGSGSGTDFTLTISSLQPEDFATYYCQQYKTVPLTFGGGTKVEIK | 2.67 nM | 2.11 nM | no binding | no binding (tested: 50 nM) | 25.1 nM | 0.0888 nM | 4.3e-05 s⁻¹ | 484000 M⁻¹ s⁻¹ | 11.9 nM | 137 nM |  |
| SA4055 (antibody, V domains shown) VH: EVQLVQSGGGLVQPGGSLRLSCAASVITVSSNYMSWVRQAPGKGLEWVSVIYPGGSTYYADSVKGRFTISRDKSKNTLYLQMNSLRAEDTAVYYCARDLDIVGGMDVWGQGTTVTVSS VL: QSALTQPASVSGSPGQSITISCTGTSSDVGDYNLVSWYQQHPGKAPKVMIYDVSHRPSGVSNRFSGSKSGNTASLTISGLQAEDEADYYCSSYTSSTTVVFGGGTKLTVL | 2.9 nM | 1.88 nM | no binding | no binding (tested: 50 nM) | 0.144 nM | 0.061 nM | 2.36e-05 s⁻¹ | 387000 M⁻¹ s⁻¹ | 37.1 nM | 7 nM | 3.22 nM and 4.51 nM |
| SA4057 (antibody, V domains shown) VH: EVQLVQSGGGLVQPGGSLRLSCAASVITVSSNYMSWVRQAPGKGLEWVSVIYPGGSTYYADSVKGRFTISRDKSKNTLYLQMNSLRAEDTAVYYCARDLDIVGGMDVWGQGTTVTVSS VL: QLVLTQPPSVSGAPGQRVTISCTGSSSNIGAPHDVHWYQQLPGTAPRLLIYANNNRPSGVPDRFSGSKSGTSASLAITGLQDEDEADYYCQSYDSSLRAYVFGTGTKVTVL | 4.13 nM |  | no binding | no binding (tested: 50 nM) | 4.81 nM | 0.0284 nM | 4.96e-06 s⁻¹ | 175000 M⁻¹ s⁻¹ | 28.1 nM | 37.5 nM |  |
| SA4056 (antibody, V domains shown) VH: QVQLQESGGGLVQPGGSLRLSCAASVITVSSNYMSWVRQAPGKGLEWVSVIYPGGSTYYADSVKGRFTISRDKSKNTLYLQMNSLRAEDTAVYYCARDLDIVGGMDVWGQGTTVTVSS VL: DIQMTQSPSTLSASVGDRVTITCRASQSISRWLAWYQQKPGQAPKLLIYAASTLQSGVPSRFSGSGSGTEFTLTISSLQPDDFATYYCQQYDSYPRTFGQGTKVDIK | 2.19 nM | 1.4 nM | no binding | no binding (tested: 50 nM) | 1.86 nM | 0.0907 nM | 4.32e-05 s⁻¹ | 477000 M⁻¹ s⁻¹ | 28.1 nM | 11.3 nM |  |
| SA4043 (antibody, V domains shown) VH: QVQLQESGGGLVQPGGSLRLSCAASVITVSSNYMSWVRQAPGKGLEWVSVIYPGGSTYYADSVKGRFTISRDKSKNTLYLQMNSLRAEDTAVYYCARDLDIVGGMDVWGQGTTVTVSS VL: DIQMTQSPSTLSASVGDRVTITCRASQSISRWLAWYQQKPGQAPKLLIYAASTLQSGVPSRFSGSGSGTEFTLTISSLQPDDFATYYCQQYDSYPRTFGQGTKVDIK | 1.69 nM | 1.43 nM | no binding | no binding (tested: 50 nM) | 1.76 nM |  |  |  | 12.8 nM | 12.5 nM |  |
| SA4044 (antibody, V domains shown) VH: EVQLVQSGGGLIQPGGSLRLSCAASGFTVSSNYMSWVRQAPGKGLEWVSVIYSGGSTYYADSVKGRFTISRDNSKNTLHLQMNSLRAEDTAVYYCARDLPQFDGFDYWGQGTLVTVSS VL: QSALTQPPSLSVAPGRTARITCGGNNIGSKSVNWYQHMPGQAPVLVIYSDTDRPSGIPERVSGSKSGNTATLSISRVEAGDEADYYCQVWDSTTDHVVFGGGTKLTVL | 2.21 nM | 13.6 nM | no binding | no binding (tested: 50 nM) | 58.3 nM |  |  |  | 39.2 nM | 80.5 nM |  |
| SA4053 (antibody, V domains shown) VH: EVQLVQSGGGLVQPGGSLRLSCADSGFTFSSYWMSWVRQVPGKGLEWVANIKQDGSEKYYVDSVKGRFTISRDNAKNSLYLQMNSLRAEDTAVYYCARDVGRGYCSSTSCYRFGGREDFFDYWGQGTLVTVSS VL: QLVLTQPPSVSAAPGQRVTISCSGSFSNVGNNFVSWYRHLPGTAPELLIYDNNQRPSGIPDRFSASKSGTSATLAITGLHTGDEADYYCGTWDTSLSGVVFGGGTKLTVL | 2.21 nM | 22 nM | no binding | no binding (tested: 50 nM) | 40.6 nM | 0.689 nM | 0.000218 s⁻¹ | 316000 M⁻¹ s⁻¹ | 62.7 nM | 346 nM |  |
